Reference: paper PMC12990809

Tests used:
Assay in all cases: pulldown
[1] = target: T1, TVAG_371220 (Trichomonas vaginalis) (UniProt A2FYE4); conditions: 20 nM protein, 1.5 uM RNA pool; 20 mM HEPES pH 7.8, 70 mM KCl, 10 mM NaCl, 10% glycerol, 2 mM DTT, 0.1 ug/uL BSA; 30 min, 4 C
T1 sequence: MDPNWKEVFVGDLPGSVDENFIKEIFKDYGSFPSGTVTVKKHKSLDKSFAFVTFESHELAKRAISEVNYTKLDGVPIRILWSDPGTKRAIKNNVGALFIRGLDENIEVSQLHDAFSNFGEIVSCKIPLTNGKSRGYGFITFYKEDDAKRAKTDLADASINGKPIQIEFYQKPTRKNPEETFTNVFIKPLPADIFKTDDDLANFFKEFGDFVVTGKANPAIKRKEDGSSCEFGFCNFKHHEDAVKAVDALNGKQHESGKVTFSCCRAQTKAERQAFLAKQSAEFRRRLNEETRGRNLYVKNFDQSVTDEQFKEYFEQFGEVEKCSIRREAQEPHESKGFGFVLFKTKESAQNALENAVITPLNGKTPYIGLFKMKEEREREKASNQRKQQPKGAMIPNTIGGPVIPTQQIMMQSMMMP

[2] = target: T2, Hrb27C (Drosophila melanogaster) (UniProt P48809); conditions: 20 nM protein, 1.5 uM RNA pool; 20 mM HEPES pH 7.8, 70 mM KCl, 10 mM NaCl, 10% glycerol, 2 mM DTT, 0.1 ug/uL BSA; 30 min, 4 C (protocol of this paper; not …); cited from earlier work
T2 sequence: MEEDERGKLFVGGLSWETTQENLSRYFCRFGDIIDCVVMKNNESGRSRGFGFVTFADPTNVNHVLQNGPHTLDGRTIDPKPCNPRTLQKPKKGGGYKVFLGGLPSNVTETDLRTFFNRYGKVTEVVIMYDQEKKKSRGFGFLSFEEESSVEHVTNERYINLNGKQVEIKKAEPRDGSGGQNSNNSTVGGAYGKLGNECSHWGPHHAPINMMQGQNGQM

[3] = target: T3, Smp_024140 (Schistosoma mansoni) (UniProt G4VQ61); conditions: 20 nM protein, 1.5 uM RNA pool; 20 mM HEPES pH 7.8, 70 mM KCl, 10 mM NaCl, 10% glycerol, 2 mM DTT, 0.1 ug/uL BSA; 30 min, 4 C
T3 sequence: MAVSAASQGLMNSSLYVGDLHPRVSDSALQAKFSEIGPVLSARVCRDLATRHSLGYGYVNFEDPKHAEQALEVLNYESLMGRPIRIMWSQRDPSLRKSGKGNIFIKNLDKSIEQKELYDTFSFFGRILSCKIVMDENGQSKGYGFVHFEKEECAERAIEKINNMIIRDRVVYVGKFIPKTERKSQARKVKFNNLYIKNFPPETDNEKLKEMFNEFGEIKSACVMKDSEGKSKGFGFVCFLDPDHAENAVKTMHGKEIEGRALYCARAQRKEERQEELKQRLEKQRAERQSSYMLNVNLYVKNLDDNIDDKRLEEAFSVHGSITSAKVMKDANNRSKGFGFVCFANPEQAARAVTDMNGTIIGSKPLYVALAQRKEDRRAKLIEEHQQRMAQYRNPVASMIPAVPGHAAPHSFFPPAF

[4] = target: T4, qkr58E-2 (Drosophila melanogaster) (UniProt Q5BID2); conditions: 20 nM protein, 1.5 uM RNA pool; 20 mM HEPES pH 7.8, 70 mM KCl, 10 mM NaCl, 10% glycerol, 2 mM DTT, 0.1 ug/uL BSA; 30 min, 4 C
T4 sequence: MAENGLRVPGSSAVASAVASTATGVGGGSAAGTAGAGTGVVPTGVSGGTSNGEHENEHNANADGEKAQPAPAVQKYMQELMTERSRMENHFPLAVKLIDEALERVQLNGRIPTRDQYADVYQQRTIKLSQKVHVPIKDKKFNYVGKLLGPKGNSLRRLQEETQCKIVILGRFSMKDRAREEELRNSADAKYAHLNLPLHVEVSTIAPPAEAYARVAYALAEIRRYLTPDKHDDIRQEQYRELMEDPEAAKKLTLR

[5] = target: T5, RNPC3 ins163_E (Gallus gallus) (UniProt A0A8V0ZU58); conditions: 20 nM protein, 1.5 uM RNA pool; 20 mM HEPES pH 7.8, 70 mM KCl, 10 mM NaCl, 10% glycerol, 2 mM DTT, 0.1 ug/uL BSA; 30 min, 4 C
T5 sequence: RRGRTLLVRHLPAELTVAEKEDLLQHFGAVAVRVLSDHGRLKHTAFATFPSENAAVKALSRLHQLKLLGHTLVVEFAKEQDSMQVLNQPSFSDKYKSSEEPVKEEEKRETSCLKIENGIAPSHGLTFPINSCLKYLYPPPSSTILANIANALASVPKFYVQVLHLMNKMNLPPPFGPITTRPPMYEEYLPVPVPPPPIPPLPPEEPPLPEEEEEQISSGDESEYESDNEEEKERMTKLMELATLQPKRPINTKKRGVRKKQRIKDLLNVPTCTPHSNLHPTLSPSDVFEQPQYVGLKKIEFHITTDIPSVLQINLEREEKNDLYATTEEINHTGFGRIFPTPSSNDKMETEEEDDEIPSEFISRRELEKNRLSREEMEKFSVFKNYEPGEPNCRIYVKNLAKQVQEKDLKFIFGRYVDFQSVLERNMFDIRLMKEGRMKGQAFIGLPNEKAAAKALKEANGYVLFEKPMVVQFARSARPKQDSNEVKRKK

[6] = target: T6, rnp-3 (Caenorhabditis elegans) (UniProt Q21323); conditions: 20 nM protein, 1.5 uM RNA pool; 20 mM HEPES pH 7.8, 70 mM KCl, 10 mM NaCl, 10% glycerol, 2 mM DTT, 0.1 ug/uL BSA; 30 min, 4 C
T6 sequence: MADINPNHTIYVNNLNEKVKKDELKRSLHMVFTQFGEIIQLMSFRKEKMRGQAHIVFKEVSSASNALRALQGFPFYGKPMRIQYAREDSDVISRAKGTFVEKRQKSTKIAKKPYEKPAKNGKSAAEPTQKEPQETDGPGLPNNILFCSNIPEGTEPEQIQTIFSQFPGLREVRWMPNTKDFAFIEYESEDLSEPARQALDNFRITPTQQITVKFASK

[7] = target: PGTG_09691 (Puccinia graminis) (UniProt E3KI53); conditions: 20 nM protein, 1.5 uM RNA pool; 20 mM HEPES pH 7.8, 70 mM KCl, 10 mM NaCl, 10% glycerol, 2 mM DTT, 0.1 ug/uL BSA; 30 min, 4 C
[8] = target: T7, pabpc1A (Dictyostelium discoideum) (UniProt Q54BM2); conditions: 20 nM protein, 1.5 uM RNA pool; 20 mM HEPES pH 7.8, 70 mM KCl, 10 mM NaCl, 10% glycerol, 2 mM DTT, 0.1 ug/uL BSA; 30 min, 4 C
T7 sequence: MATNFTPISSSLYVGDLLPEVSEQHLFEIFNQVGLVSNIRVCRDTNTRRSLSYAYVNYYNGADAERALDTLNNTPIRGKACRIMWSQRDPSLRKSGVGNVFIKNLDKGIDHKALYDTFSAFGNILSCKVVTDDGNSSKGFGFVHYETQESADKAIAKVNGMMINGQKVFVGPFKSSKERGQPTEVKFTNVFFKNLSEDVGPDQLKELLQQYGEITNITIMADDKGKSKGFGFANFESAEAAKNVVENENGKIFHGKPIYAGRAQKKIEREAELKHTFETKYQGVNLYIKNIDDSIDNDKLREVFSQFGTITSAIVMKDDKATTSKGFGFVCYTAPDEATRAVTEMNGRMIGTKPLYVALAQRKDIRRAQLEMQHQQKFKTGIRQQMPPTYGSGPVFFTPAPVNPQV

PRR3 (Homo sapiens) = target: T8, PRR3 (Homo sapiens) (UniProt P79522); conditions: 20 nM protein, 1.5 uM RNA pool; 20 mM HEPES pH 7.8, 70 mM KCl, 10 mM NaCl, 10% glycerol, 2 mM DTT, 0.1 ug/uL BSA; 30 min, 4 C
T8 sequence: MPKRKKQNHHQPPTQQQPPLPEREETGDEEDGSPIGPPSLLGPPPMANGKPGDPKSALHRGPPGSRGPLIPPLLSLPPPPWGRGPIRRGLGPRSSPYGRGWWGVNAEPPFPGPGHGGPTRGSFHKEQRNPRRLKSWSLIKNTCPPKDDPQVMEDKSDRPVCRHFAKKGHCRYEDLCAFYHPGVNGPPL

AAAAAAG [RNAcompete motif RNCMPT00623]
binding signal (z-score (mean of top ten 7-mers)) [1]: 11.9

UAGGNUA [RNAcompete motif RNCMPT00093]
binding signal (z-score (mean of top ten 7-mers)) [2]: 12.1

AAAAAA [RNAcompete motif RNCMPT00501]
binding signal (z-score (mean of top ten 7-mers)) [3]: 8.02

AUAAUA [RNAcompete motif RNCMPT00637]
binding signal (z-score (mean of top ten 7-mers)) [4]: 13

UUACGUA [RNAcompete motif RNCMPT00630]
binding signal (z-score (mean of top ten 7-mers)) [5]: 6.68

AGCACGG [RNAcompete motif RNCMPT00510]
binding signal (z-score (mean of top ten 7-mers)) [6]: 14.1

UUGCAC [RNAcompete motif RNCMPT00482]
binding signal (z-score (mean of top ten 7-mers)) [7]: 11.4

AAAAAAA [RNAcompete motif RNCMPT00508]
binding signal (z-score (mean of top ten 7-mers)) [8]: 14.8

AUAAGC [RNAcompete motif RNCMPT00628]
binding signal (z-score (mean of top ten 7-mers)) (PRR3 (Homo sapiens)): 15.2
